Experimental data taken from patent US20240261333A1 (published 2024).

Tests used:
Assay in all cases: co-IP with anti-FLAG, mass spectrometry; N-FLAG B3GNT2
[1] = target: T1, YBX3 (UniProt P16989 2-372, limits assumed)
T1 construct: Endogenous protein found in the co-IP by mass spectrometry; also called XP_016875611.1 (+1)
Procedure: (§1) Cells were plated in 10-cm cell culture dishes and grown to 60-80% confluency. For each condition, two biological replicates were harvested for co-IP. Cells were washed with PBS and 4 mL of lysis buffer (20 mM HEPES, 1% Triton X-100, 150 mM NaCl, 1 mM EDTA, and 10% glycerol) containing protease inhibitor cocktail was added. Cells were scraped and lysate was incubated at 4° C. under rotary agitation for 1 h. Lysate was centrifuged at 14,000×g for 10 min at 4° C. Supernatant was transferred to a new tube and an aliquot was taken as the input. […] For Western blots, 10 μg/mL Chicken Anti-FLAG (Aves labs ET-DY100) and IgY control (R&D Systems AB-101-C) antibodies were biotinylated (Thermo Fisher Scientific 90407) and added to the respective conditions. Lysates with antibodies were incubated at 4° C. under rotary agitation overnight. For each mL of lysate, 50 μL of Pierce Protein A/G Magnetic Beads (Mass spectrometry; Thermo Fisher Scientific 88803) or Pierce Streptavidin Magnetic Beads (Western blot; Thermo Fisher Scientific 88817) was washed twice with lysis buffer. Lysates with antibodies were added to the beads and incubated at 4° C. under rotary agitation for 4 h. Beads were washed with lysis buffer 3 times and resuspended in lysis buffer for storage.
(§2) Magnetic beads were resuspended in 100 mM Tris pH 7.8, reduced, alkylated and digested with trypsin at 37° ° C. overnight. This solution was subjected to solid phase extraction to concentrate the peptides and remove unwanted reagents followed by injection onto a Shimadzu HPLC with fraction collector. Eight fractions were collected and after concentration were injected on a Waters NanoAcquity HPLC equipped with a self-packed Aeris 3 μm C18 analytical column 0.075 mm by 20 cm, (Phenomenex). Peptides were eluted using standard reverse-phase gradients. The effluent from the column was analyzed using a Thermo Orbitrap Elite mass spectrometer (nanospray configuration) operated in a data dependent manner for 54 minutes. The resulting fragmentation spectra were correlated against the known database using Proteome Discover 1.4 (Thermo Fisher Scientific).

[2] = target: RPS15A (UniProt P62244 2-130)
Procedure: as §1, §2

[3] = target: RPS17 (UniProt P08708 2-135)
Procedure: as §1, §2

[4] = target: T2, HNRNPF (UniProt P52597 2-415)
T2 construct: Endogenous protein found in the co-IP by mass spectrometry; also called NP_001091676.1
T2 sequence (looked up): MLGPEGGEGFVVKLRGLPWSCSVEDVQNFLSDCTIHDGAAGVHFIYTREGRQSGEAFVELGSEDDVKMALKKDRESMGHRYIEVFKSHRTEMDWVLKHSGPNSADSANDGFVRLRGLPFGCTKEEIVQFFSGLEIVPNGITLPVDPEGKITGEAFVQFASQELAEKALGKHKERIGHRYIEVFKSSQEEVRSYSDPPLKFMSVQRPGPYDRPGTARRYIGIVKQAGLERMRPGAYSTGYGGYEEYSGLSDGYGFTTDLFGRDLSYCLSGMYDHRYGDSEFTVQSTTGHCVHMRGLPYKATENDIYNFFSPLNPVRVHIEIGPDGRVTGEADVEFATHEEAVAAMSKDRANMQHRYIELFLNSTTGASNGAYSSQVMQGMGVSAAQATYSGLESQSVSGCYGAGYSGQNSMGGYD
Procedure: as §1, §2

[5] = target: RPL36A (UniProt P83881 1-106)
Procedure: as §1, §2

[6] = target: RPL10A (UniProt P62906 2-217)
Procedure: as §1, §2

[7] = target: RPL36 (UniProt Q9Y3U8 2-105)
Procedure: as §1, §2

[8] = target: T3, ATXN2L (UniProt Q8WWM7 1-1075)
T3 construct: Endogenous protein found in the co-IP by mass spectrometry; also called NP_009176.2
T3 sequence (looked up): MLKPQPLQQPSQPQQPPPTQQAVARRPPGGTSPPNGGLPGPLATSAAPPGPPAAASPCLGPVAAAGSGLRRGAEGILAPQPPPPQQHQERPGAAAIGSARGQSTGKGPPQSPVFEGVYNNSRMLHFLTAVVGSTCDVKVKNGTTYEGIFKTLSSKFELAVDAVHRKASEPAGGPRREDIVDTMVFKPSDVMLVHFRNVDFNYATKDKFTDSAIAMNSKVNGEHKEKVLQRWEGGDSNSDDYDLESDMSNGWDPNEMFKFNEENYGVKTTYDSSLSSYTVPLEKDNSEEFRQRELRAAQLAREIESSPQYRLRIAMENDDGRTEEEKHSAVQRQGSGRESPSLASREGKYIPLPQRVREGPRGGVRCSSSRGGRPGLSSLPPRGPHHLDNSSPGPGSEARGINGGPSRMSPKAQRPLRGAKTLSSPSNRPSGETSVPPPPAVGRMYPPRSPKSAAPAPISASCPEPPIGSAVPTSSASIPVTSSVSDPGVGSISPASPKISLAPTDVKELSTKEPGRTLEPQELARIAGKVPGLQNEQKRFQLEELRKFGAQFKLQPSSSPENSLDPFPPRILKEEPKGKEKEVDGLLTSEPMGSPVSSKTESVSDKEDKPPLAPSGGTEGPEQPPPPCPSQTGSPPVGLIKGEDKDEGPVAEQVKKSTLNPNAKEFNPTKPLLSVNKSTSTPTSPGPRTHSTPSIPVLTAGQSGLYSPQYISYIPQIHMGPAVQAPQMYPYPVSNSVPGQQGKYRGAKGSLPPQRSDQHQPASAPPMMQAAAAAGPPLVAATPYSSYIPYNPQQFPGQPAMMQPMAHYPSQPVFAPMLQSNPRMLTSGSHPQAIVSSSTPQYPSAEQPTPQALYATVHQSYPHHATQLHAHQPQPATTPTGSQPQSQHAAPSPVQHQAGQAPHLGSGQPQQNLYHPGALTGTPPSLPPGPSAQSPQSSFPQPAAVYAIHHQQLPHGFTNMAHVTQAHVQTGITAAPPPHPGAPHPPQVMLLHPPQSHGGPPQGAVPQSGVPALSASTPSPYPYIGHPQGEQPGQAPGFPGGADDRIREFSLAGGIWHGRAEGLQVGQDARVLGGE
Procedure: as §1, §2

T1 sequence (P16989 2-372 limits assumed): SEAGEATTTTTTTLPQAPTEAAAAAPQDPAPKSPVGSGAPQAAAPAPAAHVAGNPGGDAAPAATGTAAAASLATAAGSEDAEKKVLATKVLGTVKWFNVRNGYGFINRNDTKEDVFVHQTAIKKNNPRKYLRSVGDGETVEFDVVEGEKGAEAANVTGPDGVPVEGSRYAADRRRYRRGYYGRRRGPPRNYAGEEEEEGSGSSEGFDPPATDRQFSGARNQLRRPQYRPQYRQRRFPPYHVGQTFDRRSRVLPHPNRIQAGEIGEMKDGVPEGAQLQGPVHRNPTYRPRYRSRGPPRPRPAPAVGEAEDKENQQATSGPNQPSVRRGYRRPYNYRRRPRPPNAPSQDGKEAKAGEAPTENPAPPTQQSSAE

co-IP mass spectrometry count [1]: 0
co-IP mass spectrometry count [2]: 3
co-IP mass spectrometry count [3]: 5
co-IP mass spectrometry count [4]: 0
co-IP mass spectrometry count [5]: 3
co-IP mass spectrometry count [6]: 6
co-IP mass spectrometry count [7]: 0
co-IP mass spectrometry count [8]: 5
B1: N-terminal FLAG tagged B3GNT2 (enzyme, human, UniProt Q9NY97 1-397, looked up)
chain: MSVGRRRIKLLGILMMANVFIYFIMEVSKSSSQEKNGKGEVIIPKEKFWKISTPPEAYWNREQEKLNRQYNPILSMLTNQTGEAGRLSNISHLNYCEPDLRVTSVVTGFNNLPDRFKDFLLYLRCRNYSLLIDQPDKCAKKPFLLLAIKSLTPHFARRQAIRESWGQESNAGNQTVVRVFLLGQTPPEDNHPDLSDMLKFESEKHQDILMWNYRDTFFNLSLKEVLFLRWVSTSCPDTEFVFKGDDDVFVNTHHILNYLNSLSKTKAKDLFIGDVIHNAGPHRDKKLKYYIPEVVYSGLYPPYAGGGGFLYSGHLALRLYHITDQVHLYPIDDVYTGMCLQKLGLVPEKHKGFRTFDIEEKNKNNICSYVDLMLVHSRKPQEMIDIWSQLQSAHLKC
notes: FLAG-tagged ORF overexpressed in cells; bait of the anti-FLAG co-IP; also called N-FLAG B3GNT2; N-term FLAG; not shown: FLAG tag at the N-terminus
